Laboratory results published in the supplement of paper PMC12042874.
± gives the uncertainty stated by the source.

Experiment: amyloid nucleation score (Sup35N fusion, yeast selection) (log enrichment); library NNK3; higher = more nucleation; inactive = no reads after selection
How it was run: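 Random libraries were run with three technical output replicates. In each, psi-negative yeast expressing Sup35N fused to peptides of 20 random codons were induced 24 hours with 100 μM copper sulfate and grown 7 days at 30°C on medium lacking adenine and uracil, and input and output plasmid inserts were Illumina-sequenced. The nucleation score is the DiMSum log enrichment of output over input reads, centred on the mode score of non-aggregating sequences, and sequences under 100 input reads were excluded.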

Row | Substance | amyloid nucleation score
1 | AAAMVKAMIDVITGKIPVAE | inactive
2 | AAETLTRSWLLRSARLMKDG | -0.233 ± 1.4
3 | AAFAREDRCSLLVWYSTCWD | inactive
4 | AAHCYNGVLKGVI | inactive
5 | AAKYFCNCRGYFAPRLKC | inactive
6 | AALHKRTAAQNVPKELGLTM | 0.227 ± 0.63
7 | AALVGLRCIAWNYCDTRKRI | inactive
8 | AAMKGKSTHPHKGSFSLAIA | inactive
9 | AARISRGVPWYGQEMKGRVR | inactive
10 | AASNTAFNYLSTRPIMRWLA | inactive
11 | ACKLIEFSSQQVFVGFGVHA | inactive
12 | ACLCNNCLSLNPTWSCFLCL | 2.41 ± 0.087
13 | ACSRKISSIVATSRLVSTSG | inactive
14 | ADCNWVNNVMSVKGLMSVVM | inactive
15 | ADGWFEIFKGYSAPGAHSVL | -0.48 ± 1.1
16 | ADLATYLTDLTERDAILSPP | 0.424 ± 0.39
17 | ADLPVIHNNKRLVVVWHWLN | inactive
18 | ADMCPVDRRVLDLVSKRAMS | inactive
19 | ADRVSVIYMS | inactive
20 | AEHHYAFAFTEF | inactive
21 | AFCNTIETDMNSAPVFLRAA | inactive
22 | AFGLTVFE | inactive
23 | AFGLVLLSTLHNASIIPRWF | inactive

Row | Substance | amyloid nucleation score
24 | AFGYKFGSANEAVRMLLSLV | inactive
25 | AFKECARRR | inactive
26 | AFLACLRLKDLDVVFRSPNR | inactive
27 | AFPTVLLHWRN | inactive
28 | AFTCYELAGIWRNVTVPCYL | inactive
29 | AFYDNWKGNG | 0.141 ± 0.35
30 | AGFLRDLMCDHLEDDGVPAV | inactive
31 | AGKDSPGTDHGGGKNNVRV | inactive
32 | AGKHFAHSGLFLVCNYTSRT | inactive
33 | AGKYIQNYEVKGCLSAYRAG | inactive
34 | AGLLDMARSVDCSGLGYGFF | -0.82 ± 1
35 | AGRDIIMYNRAWFNISAA | inactive
36 | AGVNLRTIRVMYRLPIISYL | inactive
37 | AGYNYASKSNTLESQTACCS | inactive
38 | AHLLETMDTREVFKIR | inactive
39 | AIALLSPSDYVHSLGFHMVA | inactive
40 | AIAWYLLLHSRRMIWCINCP | inactive
41 | AIGRTCGKYMYSFGGLHSSH | inactive
42 | AIGYLCSALAKVSLFGKWSV | inactive
43 | AIHTSPLIIPPNRFVRYRNR | inactive
44 | AILLWNCLHSSVSLLKKAYS | -0.518 ± 1.4
45 | AILYTRHG | 0.082 ± 0.38
46 | AIPSMSSRTLNQVSPIDPDL | 0.706 ± 0.17

Row | Substance | amyloid nucleation score
47 | AIVIRLNSVYYYGCGWLLNR | inactive
48 | AIWLCCQLLLM | 2.63 ± 0.066
49 | AKICLFV | inactive
50 | AKPIRSSGMFVCTAVYEYVF | inactive
51 | AKSVSLHIPTCRYHLTYIAF | inactive
52 | AKTSYQRN | inactive
53 | AKVQWAV | -0.106 ± 0.43
54 | ALARELIFLLCMNVRLMGFK | inactive
55 | ALASGVVVKLDICIVNNRMY | 3.11 ± 0.073
56 | ALCGNHLKCYKYSGAWRAV | inactive
57 | ALEAFKRFNLYELGCKGIKV | inactive
58 | ALEFRSTENTSSSG | -0.223 ± 0.73
59 | ALFLACNH | 1.59 ± 0.095
60 | ALHWKGLQT | inactive
61 | ALMRYVFPKWRDCAAMWDSL | inactive
62 | ALPPSVF | inactive
63 | ALQLRVPDDVWLYVCYSRMN | inactive
64 | ALRGWILWW | inactive
65 | ALSHKVAVYVYC | inactive
66 | ALTAYLVNVWSKYTGMLFSC | inactive
67 | ALTWMRMYALCNIEVNHYST | 2.07 ± 0.066
68 | ALYNCSCQDNGVQFNK | inactive
69 | AMHHSNRSKPVSVIRWMWRC | inactive

Row | Substance | amyloid nucleation score
70 | AMPMATLTVPMWLLILFVTF | inactive
71 | ANCINRV | inactive
72 | ANHCLCRGSKYLRKRVNLAI | inactive
73 | ANKSTIGLFMRLPYCPGSN | -0.148 ± 0.96
74 | ANKYASRFVYSISDLSWTIW | inactive
75 | ANRLC | inactive
76 | ANSDCLFARFDRLFDVSVED | -0.295 ± 0.71
77 | ANYVYNQTVMCS | inactive
78 | APAEIFDLLKSMNGTLCRMG | inactive
79 | APHLFLARYLYVCLYCENEW | 1.25 ± 0.11
80 | APIWVFRAYLVFL | inactive
81 | APKVQGDCRNTGCAPMVHKK | inactive
82 | APVCQWATKARIKCAHWRRT | inactive
83 | APWVMLVVSFPRKESRSFGM | inactive
84 | AQGKSRPYPLSNSPSGVRRS | inactive
85 | AQSEAGDF | inactive
86 | AQTYSMCFNITKHPYNSMCG | inactive
87 | ARDNDLLNCMMLGLFSRLAF | inactive
88 | ARHVLAGCKRMLYHFEGRVG | -0.643 ± 1.3
89 | ARLSLWS | 0.733 ± 0.31
90 | ARTGYNGYQFRSGRALEITG | inactive
91 | ARVRFSLKRSCMLVHA | inactive
92 | ASARRCVSVVLIHTAKIHRN | inactive

Row | Substance | amyloid nucleation score
93 | ASASY | inactive
94 | ASCQSSIVFRTGSSLATLCD | inactive
95 | ASDSCGG | inactive
96 | ASGVPIADYTNTLKRWWLSE | inactive
97 | ASHYTVSFFSENDAHRGACR | inactive
98 | ASIGIRFVDCLYSVLRRWMF | inactive
99 | ASNYDYVYMPTWDKDRFSRY | inactive
100 | ASNYYKCCCSNWLCCLMSDR | 2.91 ± 0.066
101 | ASPTQVNYFTLVKCMVLRTT | inactive
102 | ASSKCYINKRSNPGRRGLYG | inactive
103 | ASSLMQ | inactive
104 | ASSSQGRDYVCMSYNFIGGV | -0.551 ± 0.55
105 | ASVRTYVDTNHYNLAEILRL | inactive
106 | ASYLNYSFVKIETAVSSNPC | 0.609 ± 0.11
107 | ATCLLIGFGPWMSPAG | inactive
108 | ATDKV | inactive
109 | ATIGRVRGLKDPHLYQCAFM | inactive
110 | ATPFGWDHN | inactive
111 | ATQLCCIVCRGLGPGMGEES | inactive
112 | ATTDGTVSCVYPRFRLFWCI | inactive
113 | AVGLRRPLCMYF | inactive
114 | AVICYS | inactive
115 | AVINVILIIVSECRNSN | 1.9 ± 0.075

Row | Substance | amyloid nucleation score
116 | AVISNRFYEEKLYDATYLRL | inactive
117 | AVLEMQLTIW | inactive
118 | AVQYPSVCWNYKSNSMHC | inactive
119 | AVRFNHAYISQKPQRMLL | inactive
120 | AVTDLDIFICSG | inactive
121 | AVTKNVTERFHMLMPKDWVG | inactive
122 | AVYCPINLLAF | inactive
123 | AVYQLDMCDLVMVSLDGTVR | inactive
124 | AWGSVYVALVWRWNFRCVR | inactive
125 | AWSDPSDQQPEQLRVVVDFL | inactive
126 | AYIMDSSWWV | inactive
127 | AYLIRIGVIRLFLTLCCG | inactive
128 | AYLSFLLFCCCKTLVWLVLR | 0.841 ± 0.13
129 | AYLSSTSANF | inactive
130 | AYMKGVWFRDEKDISFLIWI | inactive
131 | AYNFEHFPDETSAQGHVY | inactive
132 | AYRSKLKLCSYWIMGCVHPL | inactive
133 | AYVLARFLEDFFMILLWDRW | inactive
134 | CADFFQDCAHKIFKNNRITG | inactive
135 | CAFPVDGRGTIVVFRHVLEG | inactive
136 | CAKDMMCRVYMSLLLHLGVD | inactive
137 | CANQGGCIICDATYQCVIIA | 0.649 ± 0.14
138 | CCACWGINHSYGLSTEVSQY | inactive

Row | Substance | amyloid nucleation score
139 | CCFHLFTYCKGKARYTLWSV | inactive
140 | CCGEHRVGQWV | 0.157 ± 0.27
141 | CCIIYVVRRGE | 1.28 ± 0.096
142 | CCLEILGTLFN | inactive
143 | CCMVYGGYMM | inactive
144 | CCRFAVLRRLERSDQKGVWI | inactive
145 | CCTSA | inactive
146 | CCWYPYEYIINYASVTSQFP | 1.56 ± 0.066
147 | CDEVLTDKLVWGREFILWSD | inactive
148 | CDFREVTLDY | inactive
149 | CDGNMVGSTAIPVSFFPFGR | inactive
150 | CDGPMSYMGLGTAGKR | inactive
151 | CDLDLLHGWCGNKRMGSCGR | inactive
152 | CDLMAKGSCIEQPQPSVAGK | inactive
153 | CDVSGSCPGRSPARLKEGSR | inactive
154 | CEEPFLNCHFLDY | inactive
155 | CELGNIVHS | inactive
156 | CEQDTCFIHISRYTTVNNTM | inactive
157 | CEQQSRYHMKFMPASLLSFK | inactive
158 | CESRP | inactive
